Experimental data from patent US20240390512A1, “METHODS OF TREATING CHEMOTHERAPY-RESISTANT CANCER WITH AN ANTIBODY-DRUG CONJUGATE” (DAIICHI SANKYO COMPANY, LIMITED, priority 2021, published 2024).
Substitutions are numbered along the chain they refer to.

T1: human CDH6 (full-length and EC domain deletion mutants) (Homo sapiens, UniProt P55285)
T1 construct: each one of the five EC domains could be deleted from full-length human CDH6; 3xFLAG (deletion mutants only, from the vector p3×FLAG-CMV-9); expressed in transfected cells; host or cells: 293α cells
T1 sequence (P55285 54-790): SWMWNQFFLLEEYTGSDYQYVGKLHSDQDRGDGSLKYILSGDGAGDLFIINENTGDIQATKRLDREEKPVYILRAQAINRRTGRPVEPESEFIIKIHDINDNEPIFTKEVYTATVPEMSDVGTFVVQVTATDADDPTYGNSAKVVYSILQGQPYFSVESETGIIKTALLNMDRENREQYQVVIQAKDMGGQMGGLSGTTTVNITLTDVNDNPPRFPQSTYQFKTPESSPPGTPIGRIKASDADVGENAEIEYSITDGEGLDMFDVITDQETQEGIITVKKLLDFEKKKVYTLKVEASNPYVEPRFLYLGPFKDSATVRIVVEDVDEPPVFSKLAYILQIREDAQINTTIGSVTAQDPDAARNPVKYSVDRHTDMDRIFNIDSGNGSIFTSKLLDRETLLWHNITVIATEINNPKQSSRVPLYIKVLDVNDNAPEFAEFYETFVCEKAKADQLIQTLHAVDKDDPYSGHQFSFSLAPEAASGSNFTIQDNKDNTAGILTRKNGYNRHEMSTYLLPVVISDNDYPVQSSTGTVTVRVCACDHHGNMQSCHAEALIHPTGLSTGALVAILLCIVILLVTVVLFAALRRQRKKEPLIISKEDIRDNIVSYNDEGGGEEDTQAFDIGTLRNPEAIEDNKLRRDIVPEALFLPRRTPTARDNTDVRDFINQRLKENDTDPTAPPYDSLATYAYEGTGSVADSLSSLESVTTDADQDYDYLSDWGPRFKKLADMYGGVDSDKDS

T2: human CDH6 (full-length and EC domain deletion mutants) (Homo sapiens, UniProt P55285, DEL487-608)
T2 construct: each one of the five EC domains could be deleted from full-length human CDH6; 3xFLAG (deletion mutants only, from the vector p3×FLAG-CMV-9); expressed in transfected cells; host or cells: 293α cells
T2 sequence (P55285 with tags, fused parts or gaps DEL487-608): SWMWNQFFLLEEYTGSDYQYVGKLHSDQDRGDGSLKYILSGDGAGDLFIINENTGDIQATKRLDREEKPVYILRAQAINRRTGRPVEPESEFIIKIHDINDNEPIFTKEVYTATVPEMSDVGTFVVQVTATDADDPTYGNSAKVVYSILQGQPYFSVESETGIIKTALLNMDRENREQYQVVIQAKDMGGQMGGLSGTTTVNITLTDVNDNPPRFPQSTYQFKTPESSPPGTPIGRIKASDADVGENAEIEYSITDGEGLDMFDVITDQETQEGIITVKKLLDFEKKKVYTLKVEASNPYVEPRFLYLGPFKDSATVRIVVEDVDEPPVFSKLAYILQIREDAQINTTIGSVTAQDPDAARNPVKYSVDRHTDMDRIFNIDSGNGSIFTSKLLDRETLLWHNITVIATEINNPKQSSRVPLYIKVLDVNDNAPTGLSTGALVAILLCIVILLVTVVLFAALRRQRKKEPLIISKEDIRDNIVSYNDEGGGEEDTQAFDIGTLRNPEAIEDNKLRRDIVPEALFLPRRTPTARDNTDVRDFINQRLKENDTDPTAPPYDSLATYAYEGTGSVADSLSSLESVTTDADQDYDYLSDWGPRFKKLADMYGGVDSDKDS

B1: rG056: rat anti-human CDH6 monoclonal antibody produced by hybridoma rG056; variable regions SEQ ID NO: 30 and 35 (antibody, listed as Rattus norvegicus, V domains shown)
VL: DVQMTQSPSSLAASPGESVSISCRATKSIGIYLAWYQQKPGKTFKLLIYSGSTLQSGTPSRFSGSGSGTDFTLTIRSLEPEDFGLYFCQQFYENPFTFGSGTKLEIRRA
VH: EVQLQESGPGLVKPSQSLSLTCSVTDYSITTYFWGWIRKFPGNKMEWMGYMSYRGGTSYNPSLKSRISITRDTSKNQFFLQLNSVTTEDTATYYCARCPNYGGHSLVFDYWGQGVMVTVSS
B2: rG055: rat anti-human CDH6 monoclonal antibody produced by hybridoma rG055; variable regions SEQ ID NO: 20 and 25 (antibody, listed as Rattus norvegicus, V domains shown)
VL: DVQMTHSPSYLAASPGESVSISCKTSKNISNYLVWYQQKPGEAYKLLIYSGSTLQSGTPSRFSGSGSGTDFTLTIRSLEPEDFGLYFCQQYYEKPFTFGSGTKLEIKRA
VH: EVQLQESGPGLVRPSQSLSLSCSVTDYSITSNYWGWIRRFPGNKMEWMGYITYSGYTSYNPSLQSRISITRDTSKNQFFLQLNSVTAEDTATYYCARSINHGGYSYVVDAWGPGASVTVSS
B3: rG061: rat anti-human CDH6 monoclonal antibody produced by hybridoma rG061; variable regions SEQ ID NO: 40 and 45 (antibody, listed as Rattus norvegicus, V domains shown)
VL: B2 VL with H6Q, T25A, S26T, N28S, V34A, L46V, F87S, F96L
VH: EVQLQESGPGLVKPSQSLSLTCSVTGYSITTYYWGWIRKFPGNKMEWMGYISYSGRTSYNPSLKSRMSITRDASKNQFFLQLNSVTTDDTATYYCARSPINHGGYWYFDFWGPGTMVTVSS
B4: rG019: rat anti-human CDH6 monoclonal antibody produced by hybridoma rG019; variable regions SEQ ID NO: 10 and 15 (antibody, listed as Rattus norvegicus, V domains shown)
VL: DIQMTQSPSLLSASVGDRVTLNCKASQNIYKNLAWYQQKLGEGPKLLIYDANTLQTGIPSRFSGSGSGSDFTLTISSLQPEDVATYFCQQYYSGWAFGGVTNLELKRA
VH: QVQLQQSGAELVKPGSSVKISCKASGYTFTRNFMHWIKQQPGNGLEWIGWIYCGDGETEYNQKFNGKATLTADRSSSTAYMELSRLTSEDSAVYFCARGVYGGFAGGYFDFWGQGVMVTVSS

molecular target: T1, human CDH6 (full-length and EC domain deletion mutants); assay: Epitope analysis of rat anti-CDH6 antibody by flow cytometry using domain deletion mutants; format: binding; conditions: flow cytometry; transfected 293α cells; antibody 20 nM
Text: (§1) The full-length extracellular region of human CDH6 has five extracellular domains, EC1 (SEQ ID NO: 2), EC2 (SEQ ID NO: 3), EC3 (SEQ ID NO: 4), EC4 (SEQ ID NO: 5), and EC5 (SEQ ID NO: 6). A gene to be expressed such that each one of the five EC domains could be deleted from full-length human CDH6 was synthesized by GeneArt, and incorporated into p3×FLAG-CMV-9 vectors for mammalian expression (Sigma-Aldrich Co. LLC) according to a method known to a person skilled in the art in order to produce an expression vector for each domain deletion mutant lacking any one of EC1 to EC5.
(§2) The epitopes to which the rat anti-human CDH6 antibodies bound were identified by flow cytometry analysis using a 293α cell line transfected with each EC domain deletion vector. Using Lipofectamine 2000 (Thermo Fisher Scientific Inc.), each domain deletion mutant expression vector produced in Reference Example 2)-2-1, or pcDNA3.1-hCDH6 for the expression of full-length human CDH6 was transiently introduced into a 293α cell line, which was a cell line derived from HEK293 cells by stable transfection with integrin αv and integrin […] expression vectors. The cells were cultured overnight under conditions of 37° C. and 5% CO2, and thereafter, a cell suspension was prepared. The suspension of the transfected 293α cells was centrifuged, and a supernatant was then removed. Thereafter, the cells were suspended by the addition of each of the 4 rat anti-CDH6 monoclonal antibodies (clone Nos: rG019, rG055, rG056 and rG061), which had been prepared in Reference Example 1)-7, or rat IgG control (R&D Systems, Inc.) (final concentration: 20 nM). The cells were left standing at 4° C. for 1 hour. The cells were washed twice with PBS supplemented with 5% FBS, and then suspended by the addition of Anti-Rat IgG (whole molecule)-FITC antibody produced in rabbit (Sigma-Aldrich Co. LLC) that had been 50-fold diluted with PBS supplemented with 5% FBS. The cells were left standing at 4° C. for 1 hour. The cells were washed twice with PBS supplemented with 5% FBS, followed by detection using a flow cytometer (Canto II; BD Biosciences). The data was analyzed using FlowJo (Tree Star, Inc.). In the histograms of FIGS. 2-1 to 2-6, the abscissa depicts FITC fluorescence intensity indicating the amount of the antibody bound, and the ordinate depicts cell count. […] Fluorescence intensity is enhanced when the antibody binds to full-length hCDH6 or each EC domain deletion mutant on the surface of cells. The rat IgG control binds to none of the transfected cells.

| Molecule | binding to full-length hCDH6 |
| --- | --- |
| B1 | bind |
| B2 | bind |
| B3 | bind |
| B4 | bind |

same assay, conditions: from domain deletion mutant binding

| Molecule | epitope on hCDH6 |
| --- | --- |
| B1 | EC3 |
| B2 | EC3 |
| B3 | EC3 |
| B4 | EC3 |

molecular target: T2, human CDH6 (full-length and EC domain deletion mutants); assay: as above; format: binding; conditions: flow cytometry; transfected 293α cells; antibody 20 nM
Text: as §1, §2

| Molecule | binding to EC5 deletion mutant |
| --- | --- |
| B1 | bind |
| B2 | bind |
| B3 | bind |
| B4 | bind |
